Assays:
Assay in all cases: native gel or EMSA; blue-native PAGE of the trimer-size SEC fractions (Superdex 200 Increase, TBS) after antibody affinity purification
[1] = biological target: 327c SOSIP.664 trimer (HIV-1 isolate 327c (subtype C))
[2] = biological target: B41 SOSIP.664 trimer (HIV-1 isolate B41 (subtype B))
[3] = biological target: CRF02_AG_250 SOSIP.664 trimer (HIV-1 isolate CRF02_AG_250 (subtype AG))
[4] = biological target: SIV trimer SIVcpzMT145 SOSIP.664 (simian immunodeficiency virus SIVcpzMT145)

327c SOSIP.664 trimer (complex)
stoichiometry N [1]: 3

B41 SOSIP.664 trimer (complex)
stoichiometry N [2]: 3

CRF02_AG_250 SOSIP.664 trimer (complex)
stoichiometry N [3]: 3

SIV trimer SIVcpzMT145 SOSIP.664 (complex)
stoichiometry N [4]: 3

Reference: paper PMC5379070
